Reference: patent US20130123171A1 (INDIANA UNIVERSITY RESEARCH AND TECHNOLOGY CORPORA, published 2013)
Several values for one entry are separate records, joined by “and”; a condition that tells them apart may be missing. Identical values can stand only once. Positions of bridges follow the written chain, without caps; N, C: chain ends. Chains are numbered I, II in the order given. No end group written: not given here.

B1: IGF-1 A:B (E10Y16L17) DPI (peptide)
A chain: GIVDECCFRSCDLRRLEMYCA-NH2
B chain: GPETLCGAELVDALYLVCGDRGFY-NH2
modifications: disulfide I:7-II:6 (inferred); not fully specified (bridges); cysteine pairing not given here
notes: A chain, then B chain; DPI as in m25
B2: IGF-1 A:B (H5D10Y16L17) DPI (peptide)
chain 1: GIVDECCFRSCDLRRLEMYCA-NH2
chain 2: GPEHLCGADLVDALYLVCGDRGFY-NH2
modifications: disulfide I:7-II:6 (inferred); not fully specified (bridges); ends not checked; also: C-terminal amide (chain not given here)
B3: IGF-1 A:B(E10Y16L17) (peptide)
A chain: GIVDECCFRSCDLRRLEMYCA-NH2
B chain: GPETLCGAELVDALYLVCGDRGFYFNKPT-NH2
modifications: disulfide I:7-II:6 (inferred); not fully specified (bridges); cysteine pairing not given here
notes: A chain, then B chain
B4: IGF-1 A:IGF-1 B(1-8)-In (9-17)-IGF-1 B (18-30) (peptide)
chain 1: GIVDECCFRSCDLRRLEMYCA-NH2
chain 2: GPETLCGSHLVEALYLVCGDRGFYFNKPT-NH2
modifications: disulfide I:7-II:6 (inferred); not fully specified (bridges); ends not checked; also: C-terminal amide (chain not given here)
notes: my derivation
B5: IGF-1 A:In (1-17)-IGF-1 B (18-30) (peptide)
chain 1: GIVDECCFRSCDLRRLEMYCA-NH2
chain 2: FVNQHLCGSHLVEALYLVCGDRGFYFNKPT-NH2
modifications: disulfide I:7-II:7 (inferred); not fully specified (bridges); ends not checked; also: C-terminal amide (chain not given here)
notes: my derivation
B6: IGF-1 A:In B(1-5)-IGF-1 B(YL) (6-30) (peptide)
A chain: GIVDECCFRSCDLRRLEMYCA-NH2
B chain: FVNQHLCGAELVDALYLVCGDRGFYFNKPT-NH2
modifications: disulfide I:6-I:11, I:20-II:19, I:7-II:7; also: disulfides as in insulin
notes: my derivation
B7: IGF-1 A (H8 A9 N21):B (H5D10Y16L17 A22) DPI A-COOH (peptide)
chain 1: GIVDECCHASCDLRRLEMYCN-OH
chain 2: GPEHLCGADLVDALYLVCGDAGFY-NH2
modifications: ends and bridges not checked
B8: IGF1 (Y^B16L^B17) (peptide)
A chain: GIVDECCFRSCDLRRLEMYCA
B chain: GPETLCGAELVDALYLVCGDRGFYFNKPT
modifications: disulfide I:7-II:6 (inferred); not fully specified (C-terminus, bridges); cysteine pairing not given here
notes: A chain, then B chain, two chain heteroduplex; also called IGF1(YL)^B16B17 analog; IGF1 A:B(Y^B16L^B17)
B9: IGF-1 A:B (peptide)
chain 1: GIVDECCFRSCDLRRLEMYCA-NH2
chain 2: GPETLCGAELVDALQFVCGDRGFYFNKPT-NH2
modifications: disulfide I:7-II:6 (inferred); not fully specified (bridges); ends not checked; also: C-terminal amide (chain not given here)
notes: Two chain heteroduplex of the native IGF-1 A and B chains

What was measured:
human insulin receptor [1] = biological target: T1, human insulin receptor (human, UniProt P06213 28-1382); experiment: SPA competition vs 125I-insulin, human IR membranes (Example 3)
T1 construct: whole, on cells
Experimental: (§1) Non-specifically bound (NSB) radioactivity was measured in the wells with a four-fold concentration excess of “cold” native ligand than the highest concentration in test samples. Total bound radioactivity was detected in the wells with no competitor. Percent specific binding was calculated as following: % Specific Binding=(Bound-NSB/Total bound-NSB)×100.

human insulin receptor [2] = biological target: T1, human insulin receptor; experiment: in vitro insulin receptor binding assay after 9 hr in 20% plasma/PBS at 37 C, relative to native insulin
human insulin receptor [3] = biological target: T1, human insulin receptor; experiment: cell-based or functional assay
human insulin receptor [4] = biological target: T1, human insulin receptor; experiment: in vitro insulin receptor binding assay after 95 hr in 20% plasma/PBS at 37 C, relative to native insulin
human insulin receptor [5] = biological target: T1, human insulin receptor; experiment: in vitro insulin receptor binding assay after 0 hr in 20% plasma/PBS at 37 C, relative to native insulin
[6] = biological target: insulin receptor, A subtype (UniProt P06213); experiment: cell-based or functional assay
[7] = biological target: insulin receptor, B subtype (UniProt P06213); experiment: cell-based or functional assay
[8] = biological target: human insulin receptor (human) (UniProt P06213); experiment: SPA competition vs 125I-insulin, human IR membranes (Example 3)
human IGF-1 receptor [9] = biological target: T2, human IGF-1 receptor (human, UniProt P08069 31-1367); experiment: SPA competition vs 125I-IGF-1, human IGF-1R membranes (Example 3)
T2 construct: whole, on cells
Experimental: as §1

[10] = biological target: human insulin receptor (human) (UniProt P06213); experiment: cell-based or functional assay
human IGF-1 receptor [11] = biological target: T2, human IGF-1 receptor; experiment: cell-based or functional assay

Molecule | IC50 (human insulin receptor [1]) | % IGF-1 (in test) (human IGF-1 receptor [9]) | % native IGF-1 activity (0.55 nM) (human IGF-1 receptor [9]) | IC50 (human IGF-1 receptor [9]) | other results
IGF1(Y^B16L^B17)(AlaPro)^A-1,0 (peptide) | 1.93 nM | – | – | – | % of Insulin Activity (human insulin receptor [1]): 37.1%
MIU-30a: B^1(Y16,L17,Y25)29a: A^1(dLys(Ac),Sar-aF19) (peptide) | – | – | – | – | % Activity of Insulin (human insulin receptor [2]): 100%; % Activity of Insulin, in vitro phosphorylation assay, after 1 hr in 20% plasma (human insulin receptor [3]): 23%; % Activity of Insulin, in vitro phosphorylation assay, after 3 hr in 20% plasma (human insulin receptor [3]): 26.8%; % Activity of Insulin, in vitro phosphorylation assay, after 6 hr in 20% plasma (human insulin receptor [3]): 32.5%; % Activity of Insulin, in vitro phosphorylation assay, after 9 hr in 20% plasma (human insulin receptor [3]): 41.1%; % Activity of Insulin, in vitro phosphorylation assay, after 10.5 hr in 20% plasma (human insulin receptor [3]): 43.2%; % Activity of Insulin (human insulin receptor [4]): 115%; % Activity of Insulin (human insulin receptor [5]): 34.4%
B^1PEG-Aoa2(H5, H10,Y16,L17)25a: A^1(pNH2-F19, N18, N21), N-terminal 20 kDa PEG, no dipeptide at A19 | – | – | – | – | % (of insulin), in vitro phosphorylation assay, IR-A [6]: 18%; % (of insulin), in vitro phosphorylation assay, IR-B [7]: 6.5%
B^1Aoa2(H5, H10,Y16,L17)25a: A^1(pNH2-F19, N18, N21) (peptide) | – | – | – | – | % (of insulin), in vitro phosphorylation assay, IR-A [6]: 81%; % (of insulin), in vitro phosphorylation assay, IR-B [7]: 48%
IGF-1 A:B (H5D10Y16L17) (S═O)DPI (peptide) | – | – | – | – | % insulin (in test) [8]: 316%; IC50 [8]: 0.25 nM
IGF-1 A:B(E10 Y16L17)-E31E32B-COOH (peptide) | – | 3% | 3.1% | 17.5 nM | % Insulin, total phosphorylation, Insulin Receptor (human insulin receptor [3]): 18.1% and 31.7%
IGF-1 A:B (H5D10Y16L17) DPI (peptide) | – | – | – | – | % insulin (in test) [8]: 479%; IC50 [8]: 0.16 nM
In A:IGF-1 B(YL) (peptide) | 82.6 nM and 107 nM | – | – | – | % insulin (in test) (human insulin receptor [1]): 0.9% and 0.7%; % native insulin activity (0.6 nM) (human insulin receptor [1]): 0.7% and 0.6%
B^1PEGAoa2(H5, H10,Y16,L17)25a: A^1(dLys(rE-C14),Nleu-aF19, N18, N21) (peptide) | – | – | – | – | % (of insulin), in vitro phosphorylation assay, IR-A, prodrug after 78 h in PBS at 37 C [6]: 8.3%; % (of insulin), in vitro phosphorylation assay, IR-A, prodrug at 0 h [6]: 1.1%; % (of insulin), in vitro phosphorylation assay, IR-B, prodrug after 78 h in PBS at 37 C [7]: 6.3%; % (of insulin), in vitro phosphorylation assay, IR-B, prodrug at 0 h [7]: 1.2%
IGF-1 A (H8 A9 N21):B (H5D10Y16L17 A22) DPI A-COOH (peptide) | – | – | – | – | % Insulin, total phosphorylation, Insulin Receptor [10]: 360% and 614%
IGF-1 A:B(D10Y16L17) DPI A-COOH (peptide) | 0.26 nM and 0.2 nM and 0.42 nM | 7.7% | 8.1% | 6.79 nM | % insulin (in test) (human insulin receptor [1]): 301% and 380% and 174%; % native insulin activity (0.6 nM) (human insulin receptor [1]): 231% and 300% and 144%; % IGF, total phosphorylation, IGF-1 Receptor (human IGF-1 receptor [11]): 112%; % Insulin, total phosphorylation, Insulin Receptor (human insulin receptor [3]): 1580%
IGF1 A:B(Y^B16L^B17)(p-NH2-F)^A19amide (peptide) | 1.08 nM | – | – | – | % of Insulin Activity (human insulin receptor [1]): 22%
IGF-1 A (H8 A9 N21):B (H5D10Y16L17) DPI A-COOH (peptide) | 0.05 nM and 0.09 nM | 12.9% | 13.6% | 4.03 nM | % insulin (in test) (human insulin receptor [1]): 1580% and 1670%; % IGF, total phosphorylation, IGF-1 Receptor (human IGF-1 receptor [11]): 181%; % Insulin, total phosphorylation, Insulin Receptor (human insulin receptor [3]): 840% and 1080%
B1 | – | 3.3% | 2.4% | 22.9 nM | –
B2 | – | 11.2% | 11.8% | 4.66 nM | –
B3 | 0.66 nM and 0.51 nM | – | – | 7.85 nM and 12.2 nM | –
B4 | 1.59 nM | 0.3% | 0.4% | 131 nM | % insulin (in test) (human insulin receptor [1]): 19.1%; % native insulin activity (0.6 nM) (human insulin receptor [1]): 37.7%
B5 | 2.77 nM and 2.67 nM and 2.48 nM | 0.9% | 0.9% | 62.5 nM | –
B6 | – | 3.6% | 2% | 27.5 nM | –
B7 | – | 2.3% | 2.4% | 22.8 nM | –
B8 | 0.51 nM | – | – | – | –
B9 | 10.4 nM | – | – | – | % insulin (in test) (human insulin receptor [1]): 5.8%; % native insulin activity (0.6 nM) (human insulin receptor [1]): 5.8%
